Experimental data published in US20260216366A1, “CONJUGATE AND USES THEREOF” (Full-Life Technologies UK Limited, priority 2022, published 2026).

Tests used:
[1] = Pharmacokinetic study of CLDN18.2-linker conjugates (serum ELISA, NCA); format: in vivo, BALB/c mice; settings: for blood circulation of the CLDN18.2 conjugates: FIG. 2, CLDN18.2 conjugate of the named linker compared to the control group; for AUCall / Cl / T1/2 / Vd: BALB/c mice, intravenous, about 1 mg/kg, serum, over 48 hours
Method: The in vivo pharmacokinetic profile of the CLDN18.2-linker conjugates was analyzed. Briefly, BALB/c mice were administered with the conjugates by intravenous injection at a dose of about 1 mg/kg. Then, whole blood of the animal was collected at different time points over 48 hours.
(§1) The whole blood was collected into a tube without anticoagulation and maintained at room temperature for more than 30 minutes, followed by centrifuge at approximately 5000 rpm at 4° C. for 5 minutes to obtain serum. Concentration of the conjugates in serum was then measured by ELISA using HRP-labeled goat anti-alpaca IgG VHH domain secondary antibody. The data was further analyzed using PK Solver software, and the […] (NCA) was used to evaluate the pharmacokinetic parameters, as shown in Table 7 and FIG. 2.

[2] = Pharmacokinetic study of FAP-linker conjugates (serum ELISA, NCA); format: in vivo, BALB/c mice; settings: BALB/c mice, intravenous, about 1 mg/kg, serum, over 48 hours
Method: he in vivo pharmacokinetic profile of the FAP-linker conjugates was analyzed. Briefly, BALB/c mice were administered with the conjugates by intravenous injection at a dose of about 1 mg/kg. Then, whole blood of the animal was collected at different time periods over 48 hours.
as §1, with “centrifugated” for “centrifuge”, “8” for “7”, “3.” for “2.”

Question: With `Cc1ccc(CCCC(=O)NCCCCC(NC(=O)CNC(=O)CCC(C(=O)O)N2CCN(CC(=O)O)CCN(CC(=O)O)CCN(CC(=O)O)CC2)C(=O)NCc2ccc(N=C=S)cc2)cc1` (centres unmarked) [L010] as the molecule, how does the “blood circulation of the CLDN18.2 conjugates” value [1] read?
Answer: significantly prolonged blood circulation

Question: With `CCCCCCCCCCCCC(=O)NCCCCC(NC(=O)CNC(=O)CCC(C(=O)O)N1CCN(CC(=O)O)CCN(CC(=O)O)CCN(CC(=O)O)CC1)C(=O)NCc1ccc(N=C=S)cc1` (centres unmarked) [L011] as the molecule, how does the “blood circulation of the CLDN18.2 conjugates” value [1] read?
Answer: significantly prolonged blood circulation

B1: CLDN18.2-L007: Claudin 18.2 sdAb (SEQ ID NO. 1) conjugated with functional linker L007 (conjugate)
VHH: EVQLVESGGGLVQPGGSLRLSCAASGSFFRIVAMGWYRQAPGSQRELVATITRGGSTYYADSVKGRFTISRDNAKNTLYLQMNSLRAEDTAVYYCNVRVEVPFMQPNDYWGQGTLVTVSS
modifications: functional linker L007 conjugated
Question: For B1, which AUCall [1] is on record?
Answer: 33100 ± 4920 ng·h/mL

Question: And the Cl [1]?
Answer: 0.45 ± 0.05 mL/min/kg

Question: And the T1/2 [1]?
Answer: 361 ± 73.8 min

Question: What about the Vd [1] of the same molecule?
Answer: 0.183 ± 0.014 L/kg

B2: CLDN18.2-L008: Claudin 18.2 sdAb (SEQ ID NO. 1) conjugated with functional linker L008 (conjugate)
VHH: EVQLVESGGGLVQPGGSLRLSCAASGSFFRIVAMGWYRQAPGSQRELVATITRGGSTYYADSVKGRFTISRDNAKNTLYLQMNSLRAEDTAVYYCNVRVEVPFMQPNDYWGQGTLVTVSS
modifications: functional linker L008 conjugated
Question: With B2 as the molecule, how does the AUCall [1] read?
Answer: 1880 ± 177 ng·h/mL

Question: And the Cl [1]?
Answer: 7.32 ± 0.367 mL/min/kg

Question: And the T1/2 [1]?
Answer: 38.2 ± 4.02 min

Question: What about the Vd [1] of the same molecule?
Answer: 0.375 ± 0.043 L/kg

B3: CLDN18.2-L009: Claudin 18.2 sdAb (SEQ ID NO. 1) conjugated with functional linker L009 (conjugate)
VHH: EVQLVESGGGLVQPGGSLRLSCAASGSFFRIVAMGWYRQAPGSQRELVATITRGGSTYYADSVKGRFTISRDNAKNTLYLQMNSLRAEDTAVYYCNVRVEVPFMQPNDYWGQGTLVTVSS
modifications: functional linker L009 conjugated
Question: With B3 as the molecule, how does the AUCall [1] read?
Answer: 148000 ± 5140 ng·h/mL

Question: What about the Cl [1] of the same molecule?
Answer: 0.083 ± 0 mL/min/kg

Question: And the T1/2 [1]?
Answer: 1490 ± 323 min

Question: And the Vd [1]?
Answer: 0.166 ± 0.023 L/kg

B4: CLDN18.2-L010: Claudin 18.2 sdAb (SEQ ID NO. 1) conjugated with functional linker L010 (conjugate)
VHH: EVQLVESGGGLVQPGGSLRLSCAASGSFFRIVAMGWYRQAPGSQRELVATITRGGSTYYADSVKGRFTISRDNAKNTLYLQMNSLRAEDTAVYYCNVRVEVPFMQPNDYWGQGTLVTVSS
modifications: functional linker L010 conjugated
Question: With B4 as the molecule, how does the AUCall [1] read?
Answer: 14500 ± 149 ng·h/mL

Question: What about the Cl [1] of the same molecule?
Answer: 1.02 ± 0.033 mL/min/kg

Question: What about the T1/2 [1] of the same molecule?
Answer: 175 ± 7.02 min

Question: What about the Vd [1] of the same molecule?
Answer: 0.199 ± 0.012 L/kg

B5: CLDN18.2-DOTAGA: Claudin 18.2 sdAb (SEQ ID NO. 1) conjugated with DOTAGA, used as control for chelating imaging radioisotope (conjugate)
VHH: EVQLVESGGGLVQPGGSLRLSCAASGSFFRIVAMGWYRQAPGSQRELVATITRGGSTYYADSVKGRFTISRDNAKNTLYLQMNSLRAEDTAVYYCNVRVEVPFMQPNDYWGQGTLVTVSS
modifications: DOTAGA chelator conjugated
Question: What does the source list for B5?
Answer: AUCall [1]: 1450 ± 149 ng·h/mL; Cl [1]: 10.2 ± 1.2 mL/min/kg; T1/2 [1]: 32.9 ± 2.52 min; Vd [1]: 0.245 ± 0.032 L/kg

B6: CLDN18.2-L003: Claudin 18.2 sdAb (SEQ ID NO. 1) conjugated with functional linker L003 (conjugate)
VHH: EVQLVESGGGLVQPGGSLRLSCAASGSFFRIVAMGWYRQAPGSQRELVATITRGGSTYYADSVKGRFTISRDNAKNTLYLQMNSLRAEDTAVYYCNVRVEVPFMQPNDYWGQGTLVTVSS
modifications: functional linker L003 conjugated
Question: Which AUCall [1] does the source give for B6 here?
Answer: 460 ± 77 ng·h/mL

Question: What about the Cl [1] of the same molecule?
Answer: 30.2 ± 4.1 mL/min/kg

Question: What about the T1/2 [1] of the same molecule?
Answer: 11.2 ± 1.56 min

Question: And the Vd [1]?
Answer: 0.431 ± 0.006 L/kg

B7: CLDN18.2-L012: Claudin 18.2 sdAb (SEQ ID NO. 1) conjugated with functional linker L012 (conjugate)
VHH: EVQLVESGGGLVQPGGSLRLSCAASGSFFRIVAMGWYRQAPGSQRELVATITRGGSTYYADSVKGRFTISRDNAKNTLYLQMNSLRAEDTAVYYCNVRVEVPFMQPNDYWGQGTLVTVSS
modifications: functional linker L012 conjugated
Question: Which results are given for B7?
Answer: AUCall [1]: 2220 ± 223 ng·h/mL; Cl [1]: 7.02 ± 0.7 mL/min/kg; T1/2 [1]: 17.3 ± 1.14 min; Vd [1]: 0.151 ± 0.025 L/kg

B8: CLDN18.2-L011: Claudin 18.2 sdAb (SEQ ID NO. 1) conjugated with functional linker L011 (conjugate)
VHH: EVQLVESGGGLVQPGGSLRLSCAASGSFFRIVAMGWYRQAPGSQRELVATITRGGSTYYADSVKGRFTISRDNAKNTLYLQMNSLRAEDTAVYYCNVRVEVPFMQPNDYWGQGTLVTVSS
modifications: functional linker L011 conjugated
Question: Which AUCall [1] does the source give for B8 here?
Answer: 15700 ± 816 ng·h/mL

Question: And the Cl [1]?
Answer: 0.95 ± 0.017 mL/min/kg

Question: And the T1/2 [1]?
Answer: 90 ± 10.1 min

Question: And the Vd [1]?
Answer: 0.106 ± 0.008 L/kg

B9: CLDN18.2-L006: Claudin 18.2 sdAb (SEQ ID NO. 1) conjugated with functional linker L006 (conjugate)
VHH: EVQLVESGGGLVQPGGSLRLSCAASGSFFRIVAMGWYRQAPGSQRELVATITRGGSTYYADSVKGRFTISRDNAKNTLYLQMNSLRAEDTAVYYCNVRVEVPFMQPNDYWGQGTLVTVSS
modifications: functional linker L006 conjugated
Question: Which results are given for B9?
Answer: AUCall [1]: 650 ± 69 ng·h/mL; Cl [1]: 22.7 ± 2.2 mL/min/kg; T1/2 [1]: 13.5 ± 0.36 min; Vd [1]: 0.408 ± 0.026 L/kg

B10: CLDN18.2-L005: Claudin 18.2 sdAb (SEQ ID NO. 1) conjugated with functional linker L005 (conjugate)
VHH: EVQLVESGGGLVQPGGSLRLSCAASGSFFRIVAMGWYRQAPGSQRELVATITRGGSTYYADSVKGRFTISRDNAKNTLYLQMNSLRAEDTAVYYCNVRVEVPFMQPNDYWGQGTLVTVSS
modifications: functional linker L005 conjugated
Question: Which AUCall [1] does the source give for B10 here?
Answer: 881 ± 118 ng·h/mL

Question: What about the Cl [1] of the same molecule?
Answer: 17.8 ± 2 mL/min/kg

Question: And the T1/2 [1]?
Answer: 13.4 ± 1.56 min

Question: And the Vd [1]?
Answer: 0.284 ± 0.017 L/kg

B11: FAP-DOTAGA: FAP sdAb (SEQ ID NO. 5) conjugated with DOTAGA, used as control for chelating imaging radioisotope (conjugate)
VHH: QVQLLESGGGLVQPGGSLRLSCAASGFGFGNSLMSWVRRAPGKGLEWVSTIYPRGSFTDYADSVKGRFTISRDNSRNTLYLQMNSLRAEDTAVYYCATGWGRSSDYDPPGQGTLVTVSS
modifications: DOTAGA chelator conjugated
Question: For B11, which AUCall [2] is on record?
Answer: 1560 ± 88 ng·h/mL

Question: What about the Cl [2] of the same molecule?
Answer: 10.7 ± 0.633 mL/min/kg

Question: What about the T1/2 [2] of the same molecule?
Answer: 29.2 ± 0.12 min

Question: And the Vd [2]?
Answer: 0.315 ± 0.020 L/kg

B12: FAP-L007: FAP sdAb (SEQ ID NO. 5) conjugated with functional linker L007 (conjugate)
VHH: QVQLLESGGGLVQPGGSLRLSCAASGFGFGNSLMSWVRRAPGKGLEWVSTIYPRGSFTDYADSVKGRFTISRDNSRNTLYLQMNSLRAEDTAVYYCATGWGRSSDYDPPGQGTLVTVSS
modifications: functional linker L007 conjugated
Question: With B12 as the molecule, how does the AUCall [2] read?
Answer: 45700 ± 3230 ng·h/mL

Question: What about the Cl [2] of the same molecule?
Answer: 0.367 ± 0.033 mL/min/kg

Question: What about the T1/2 [2] of the same molecule?
Answer: 486 ± 6.84 min

Question: What about the Vd [2] of the same molecule?
Answer: 0.206 ± 0.017 L/kg
